Source: patent US20050182242A1, “Global analysis of protein activities using proteome chips” (priority 2001, published 2005)

Assays:
PI(3,4)P2 liposomes = experiment: Yeast proteome chip probed with PI(3,4)P2 liposomes; conditions: liposome binding signal on yeast proteome chip, Cy3-streptavidin detection
PI(3)P liposomes = experiment: Yeast proteome chip probed with PI(3)P liposomes; conditions: liposome binding signal on yeast proteome chip, Cy3-streptavidin detection
six different liposomes = experiment: Reverse membrane assay: proteins spotted on nitrocellulose probed with six liposomes; assay type: binding; conditions: HRP-conjugated streptavidin
Procedure: B. A reverse assay was carried out to test for protein-lipid interactions. The proteins were prepared and spotted onto nitrocellulose filters in a dilution series and probed with the six different liposomes. As a control, the six liposomes were also added to the BSA-blocked membrane. After extensive washing, the bound liposomes were detected using an HRP-conjugated streptavidin and an ECL kit.
C. Linear correlation between the binding signals and the amounts of Rim15p in a membrane assay. When liposome-binding signals of Rim15p from the membrane assay (FIG. 4B) were plotted against the concentration gradient of the spotted Rim15p, the binding signals of PI(4)P, PI(3,4)P2, PI(3)P, and PI(4,5)P2 correlated linearly with the amounts of Rim15p.
Therefore, six proteins, i.e., Rim15p, Eno2p, Hxk1p, Sps1p, Yg1059wp, and Gcn2p, were further tested for phosphoinositol binding using two types of standard assays (Williamson, 2000, Nat. Struct Biol. 7(10):834-7). For Rim15p, Eno2p, and Hxk1p, PI(4,5)P2 liposomes were first adhered to a nitrocellulose membrane, which was then blocked by BSA; different amounts of the GST fusion proteins and a GST control were used to probe the membrane, and bound proteins were detected using anti-GST antibodies. […] The bound liposomes were detected using a horseradish peroxidase (“HRP”)-conjugated streptavidin.

PI(4)P liposomes = experiment: Yeast proteome chip probed with PI(4)P liposomes; conditions: liposome binding signal on yeast proteome chip, Cy3-streptavidin detection
PI(3,4,5)P3 liposomes = experiment: Yeast proteome chip probed with PI(3,4,5)P3 liposomes; conditions: liposome binding signal on yeast proteome chip, Cy3-streptavidin detection
PI(4,5)P2 liposomes = experiment: Yeast proteome chip probed with PI(4,5)P2 liposomes; conditions: liposome binding signal on yeast proteome chip, Cy3-streptavidin detection
[1] = test system: phosphatidylcholine (PC) liposomes; experiment: Yeast proteome chip probed with PC liposomes; conditions: liposome binding signal on yeast proteome chip, Cy3-streptavidin detection
Outline: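 Sonicated liposomes in TBS, of phosphatidylcholine with 1% (w/w) biotin-DHPE plus 5% (w/w) of the named phosphoinositide (PC-only liposomes lacking it), were incubated on blocked chips of GST-RGS-His6-tagged yeast ORF proteins for 1 h at RT. Bound liposomes were detected with Cy3- or Cy5-streptavidin after PBS washes.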

B1: SPS1: yeast GST-HisX6 fusion protein on proteome chip (protein, UniProt P08458 1-490, looked up)
Sporulation-specific protein 1: MESKEISIRSRTPPSKLYSIQSCIGRGNFGDVYKAVDRVTQEIVAIKVVNLEHSDEDIELLAQEIFFLAELKSPLITNYIATMLEDVSMWIVMEYCGGGSCSDLLKRSYVNGLPEEKVSFIIHEVTLGLKYLHEQRKIHRDIKAANILLNEEGMVKLGDFGVSGHIRSTLKRDTFVGTPYWMAPEVVCCEVDGYNEKADIWSLGITTYELLKGLPPLSKYDPMKVMTNLPKRKPPKLQGPFSDAAKDFVAGCLVKTPADRPSAYNLLSFEFVKNITITNLKSDVDLIKQKKVQERYTKVPKYPLQNRLYKNSNTVRGKEFWNFESTRLSTTQISKEELSPITQDSPTSSLNMESPYLLHGQTVTPITNPSSSSFRKCTQPVFELDSGMDIDSGCPNAQAETEIVPLSNHNKKHKKNDIQALKIEKFDYLKNIVSHILNRMYDRARDDETRKYVNEMLKQFIKTEANVPGFNEVFIEEISLRIEAIKKGFV
modifications: GST-His6 fusion tag
notes: yeast GST-HisX6 fusion protein on proteome chip
PI(3, 4)P2 (PI(3,4)P2 liposomes): 1147.50 | PI(3)P (PI(3)P liposomes): 88.50 | liposome binding in reverse membrane assay (six different liposomes): bound all five phosphoinositol-containing liposomes nearly equally | PI(4)P (PI(4)P liposomes): 246.92 | PI(3, 4, 5)P3 (PI(3,4,5)P3 liposomes): 389.70 | PI(4, 5)P2 (PI(4,5)P2 liposomes): 358.84 | PC [1]: 557.02
